What was measured:
[1] = target: T1, Vac8[40–515]^L55R (S. cerevisiae, UniProt P39968 40-515, L55R); assay: SEC
T1 sequence (looked up): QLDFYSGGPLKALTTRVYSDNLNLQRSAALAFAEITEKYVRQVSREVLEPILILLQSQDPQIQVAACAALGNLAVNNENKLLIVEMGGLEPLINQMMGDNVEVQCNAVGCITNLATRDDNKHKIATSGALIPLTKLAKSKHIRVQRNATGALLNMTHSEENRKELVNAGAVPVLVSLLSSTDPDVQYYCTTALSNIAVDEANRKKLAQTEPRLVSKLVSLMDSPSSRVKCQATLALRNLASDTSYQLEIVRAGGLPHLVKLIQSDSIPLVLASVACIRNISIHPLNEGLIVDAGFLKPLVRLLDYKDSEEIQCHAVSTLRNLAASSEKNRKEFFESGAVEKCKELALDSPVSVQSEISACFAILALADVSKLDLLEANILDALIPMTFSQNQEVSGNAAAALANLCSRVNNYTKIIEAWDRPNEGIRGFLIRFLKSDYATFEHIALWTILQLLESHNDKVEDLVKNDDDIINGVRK

[2] = target: T2, Vac8[40–515]^N62R (S. cerevisiae, UniProt P39968 40-515, N62R); assay: SEC
T2 sequence (looked up): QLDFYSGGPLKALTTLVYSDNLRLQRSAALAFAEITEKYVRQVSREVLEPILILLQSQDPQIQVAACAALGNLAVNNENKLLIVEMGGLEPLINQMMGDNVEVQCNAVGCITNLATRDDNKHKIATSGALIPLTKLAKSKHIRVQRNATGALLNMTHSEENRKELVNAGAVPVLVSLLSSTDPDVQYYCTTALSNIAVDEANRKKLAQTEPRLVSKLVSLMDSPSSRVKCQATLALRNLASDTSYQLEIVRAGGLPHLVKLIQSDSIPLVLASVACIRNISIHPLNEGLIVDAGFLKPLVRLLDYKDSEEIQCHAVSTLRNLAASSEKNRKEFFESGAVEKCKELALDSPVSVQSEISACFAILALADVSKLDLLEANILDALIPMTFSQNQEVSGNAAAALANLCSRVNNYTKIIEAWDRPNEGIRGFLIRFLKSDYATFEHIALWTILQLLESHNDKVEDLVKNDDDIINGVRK

[3] = target: T3, Vac8[40–515]^N60R,N62R (S. cerevisiae, UniProt P39968 40-515, N60R | N62R); assay: SEC
T3 sequence (looked up): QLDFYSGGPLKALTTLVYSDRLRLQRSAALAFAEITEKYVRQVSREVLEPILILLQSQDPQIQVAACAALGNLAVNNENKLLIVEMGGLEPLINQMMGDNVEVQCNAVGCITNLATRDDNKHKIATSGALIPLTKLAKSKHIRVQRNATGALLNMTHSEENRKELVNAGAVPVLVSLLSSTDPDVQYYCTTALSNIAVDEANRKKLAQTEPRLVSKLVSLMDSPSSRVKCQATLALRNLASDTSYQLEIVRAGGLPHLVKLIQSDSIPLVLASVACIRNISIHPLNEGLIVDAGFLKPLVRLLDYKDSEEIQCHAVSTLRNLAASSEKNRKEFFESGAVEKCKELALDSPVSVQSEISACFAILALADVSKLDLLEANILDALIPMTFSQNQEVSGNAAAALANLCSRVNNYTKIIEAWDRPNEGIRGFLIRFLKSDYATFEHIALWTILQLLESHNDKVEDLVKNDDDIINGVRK

[4] = target: T4, Vac8[40–515]^A51R (S. cerevisiae, UniProt P39968 40-515, A51R); assay: SEC
T4 sequence (looked up): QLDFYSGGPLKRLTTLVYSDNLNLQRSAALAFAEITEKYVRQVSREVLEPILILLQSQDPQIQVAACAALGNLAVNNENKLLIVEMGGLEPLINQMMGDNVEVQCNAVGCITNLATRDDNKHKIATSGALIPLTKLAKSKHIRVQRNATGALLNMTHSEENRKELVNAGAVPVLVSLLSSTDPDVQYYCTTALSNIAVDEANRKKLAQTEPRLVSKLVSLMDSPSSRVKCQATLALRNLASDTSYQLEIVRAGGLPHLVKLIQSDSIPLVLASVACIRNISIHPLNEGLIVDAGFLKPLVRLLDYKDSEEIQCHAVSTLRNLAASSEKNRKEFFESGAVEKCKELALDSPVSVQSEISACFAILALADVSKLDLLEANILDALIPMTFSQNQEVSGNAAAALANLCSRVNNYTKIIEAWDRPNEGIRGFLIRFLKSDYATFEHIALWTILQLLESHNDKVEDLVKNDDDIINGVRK

[5] = target: T5, Vac8[40–578] (S. cerevisiae, UniProt P39968 40-578); assay: SAXS
T5 sequence (looked up): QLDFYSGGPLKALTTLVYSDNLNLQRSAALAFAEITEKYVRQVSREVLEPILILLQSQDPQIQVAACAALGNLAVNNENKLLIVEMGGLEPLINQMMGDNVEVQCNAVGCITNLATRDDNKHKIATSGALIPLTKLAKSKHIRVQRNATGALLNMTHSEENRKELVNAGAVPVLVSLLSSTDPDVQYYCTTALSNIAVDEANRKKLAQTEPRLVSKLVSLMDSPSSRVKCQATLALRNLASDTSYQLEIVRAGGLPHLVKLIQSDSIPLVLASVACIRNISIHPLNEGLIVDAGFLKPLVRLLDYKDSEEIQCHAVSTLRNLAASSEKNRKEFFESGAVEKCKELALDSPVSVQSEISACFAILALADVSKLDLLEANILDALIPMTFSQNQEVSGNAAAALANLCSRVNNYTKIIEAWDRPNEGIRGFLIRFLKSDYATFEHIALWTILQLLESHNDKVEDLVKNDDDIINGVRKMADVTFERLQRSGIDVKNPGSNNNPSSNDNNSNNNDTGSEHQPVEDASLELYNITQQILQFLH

binding result [1]: binds
binding result [2]: binds
binding result [3]: binds
binding result [4]: binds
binding result [5]: binds
B1: tAtg13 (Atg13 construct comprising residues 567–695) (domain or fragment, S. cerevisiae, UniProt Q06628 567-695, looked up)
chain: GGNSSTSALNSRRNSLDKSSNKQGMSGLPPIFGGESTSYHHDNKIQKYNQLGVEEDDDDENDRLLNQMGNSATKFKSSISPRSIDSISSSFIKSRIPIRQPYHYSQPTTAPFQAQAKFHKPANKLIDNG

Source: article PMC7469494 (Autophagy, 2019)
